In patent publication US20030198634A1 (published 2003):

Columns and labels:
[1] = target: T1, human lymphotoxin (TNFβ) (human, UniProt P01374 35-205, limits assumed); assay: cell-based or functional assay
T1 sequence (looked up): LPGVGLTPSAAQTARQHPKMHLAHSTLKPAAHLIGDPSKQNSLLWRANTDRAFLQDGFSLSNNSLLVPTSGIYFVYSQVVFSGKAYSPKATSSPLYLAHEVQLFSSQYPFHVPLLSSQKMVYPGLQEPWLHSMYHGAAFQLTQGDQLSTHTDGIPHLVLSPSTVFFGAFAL

[2] = target: human tumor necrosis factor-α (TNFα) (human, UniProt P01375 77-233); assay: cell-based or functional assay
Sequence of human tumor necrosis factor-α (TNFα) (P01375 77-233): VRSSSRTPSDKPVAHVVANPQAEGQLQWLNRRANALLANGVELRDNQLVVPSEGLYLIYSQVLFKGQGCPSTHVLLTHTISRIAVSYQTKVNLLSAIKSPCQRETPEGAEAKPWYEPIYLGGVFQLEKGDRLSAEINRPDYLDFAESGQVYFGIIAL

Molecule: p55-sf2 (p55 TNF receptor/IgG1 heavy chain single fusion with truncated light chain JCK) (from UniProt P19438) (Fc fusion)
- amount needed for the same degree of inhibition of TNFβ, against p75P-sf2 (fold against p75P-sf2) [1]: 3

B1: chimeric mouse/human IgG1 anti-platelet mAb (7E3) (antibody, INN chains, looked up, V domains shown)
VH: EVQLQQSGTVLARPGASVKMSCEASGYTFTNYWMHWVKQRPGQGLEWIGAIYPGNSDTSYIQKFKGKAKLTAVTSTTSVYMELSSLTNEDSAVYYCTLYDGYYVFAYWGQGTLVTVSA
VL: EIVLTQSPVTLSVTPGDSVSLSCRASRDISNNLHWFQQTSHESPRLLIKYASQSMSGIPSRFSGSGSGTDFTLSINSVETEDFGMYFCQQTNSWPYTFGGGTKLEIK
modifications: IgG1
- IL-6 in supernatant of FS-4 fibroblasts (ng/ml), rhTNF 0.3 ng/ml, antibody 4 µg/ml (no antibody: 1.36) [2]: 1.6 ng/mL
- IL-6 in supernatant of FS-4 fibroblasts (ng/ml), rhTNF 1.5 ng/ml, antibody 4 µg/ml (no antibody: 2.00) [2]: 1.96 ng/mL
- IL-6 in supernatant of FS-4 fibroblasts (ng/ml), rhTNF 7.5 ng/ml, antibody 4 µg/ml (no antibody: 2.56) [2]: 2.16 ng/mL

B2: p75P-sf2 (p75 amino acids 1-182 fused to the IgG1 heavy chain; lacks the C-terminal 53 amino acids of the p75 extracellular domain) (Fc fusion)
chain: QLPAQVAFTPYAPEPGSTCRLREYYDQTAQMCCSKCSPGQHAKVFCTKTSDTVCDSCEDSTYTQLWNWVPECLSCGSRCSSDQVETQACTREQNRICTCRPGWYCALSKQEGCRLCAPLRKCRPGFGVARPGTETSDVVCKPCAPGTFSNTTSSTDICRPHQICNVVAIPGNASMDAVCTSTSDGTLVTVSS
- IC50 = concentration of fusion protein required to inhibit 2 ng/ml (39.2 pM) TNFα by 50%, WEHI 164 cytotoxicity assay [2]: 70 pM
- Molar ratio fp: TNFα at IC50, WEHI 164 cytotoxicity assay [2]: 1.8

B3: p75-sf2 (complete extracellular domain of p75 fused to the IgG1 heavy chain) (Fc fusion)
chain: QLPAQVAFTPYAPEPGSTCRLREYYDQTAQMCCSKCSPGQHAKVFCTKTSDTVCDSCEDSTYTQLWNWVPECLSCGSRCSSDQVETQACTREQNRICTCRPGWYCALSKQEGCRLCAPLRKCRPGFGVARPGTETSDVVCKPCAPGTFSNTTSSTDICRPHQICNVVAIPGNASMDAVCTSTSPTRSMAPGAVHLPQPVSTRSQHTQPTPEPSTAPSTSFLLPMGPSPPAEGSTGDGTLVTVSS
- amount needed for the same degree of inhibition of TNFβ, against p75P-sf2 [1]: 3 fold against p75P-sf2
